“And” between values parts separate entries of the source, which are not always exact repeats. Equal values may be shown once.
Columns and labels:
ANGPTL3 [1] = target: T1, ANGPTL3 (Homo sapiens, UniProt Q9Y5C1); assay: Phase 2 open-label study of evinacumab in patients with homozygous familial hypercholesterolemia on concomitant lipid-lowering therapies; format: in vivo; details: for LDL-C, Mean of Percent Change from Baseline ± SE (%) / Non-HDL-C, Mean of Percent Change from Baseline ± SE (%) / Apolipoprotein B, Mean of Percent Change from Baseline ± SE (%): 250 mg SC wk 0 + 15 mg/kg IV wk 2
T1 construct: Angiopoietin-like protein 3 (ANGPTL3) is a secreted protein expressed in the liver; from tissue; host or cells: in vivo, human subjects; circulating protein secreted by the liver
T1 sequence (Q9Y5C1 17-460): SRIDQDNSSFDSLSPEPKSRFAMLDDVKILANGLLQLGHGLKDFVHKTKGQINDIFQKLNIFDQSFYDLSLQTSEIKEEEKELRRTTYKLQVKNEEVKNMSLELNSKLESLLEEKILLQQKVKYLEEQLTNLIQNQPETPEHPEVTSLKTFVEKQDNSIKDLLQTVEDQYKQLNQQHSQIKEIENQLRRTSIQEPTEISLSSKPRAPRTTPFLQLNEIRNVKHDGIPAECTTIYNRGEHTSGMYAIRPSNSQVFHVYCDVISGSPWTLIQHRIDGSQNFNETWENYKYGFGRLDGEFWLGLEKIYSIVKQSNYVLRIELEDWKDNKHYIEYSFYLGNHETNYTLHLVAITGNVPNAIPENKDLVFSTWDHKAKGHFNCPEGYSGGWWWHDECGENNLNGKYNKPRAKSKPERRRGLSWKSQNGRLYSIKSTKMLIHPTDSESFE
Procedure: Patients: The nine patients (5 men, 4 women) were selected based on their genotypes and phenotypes. All presented a history of LDL-C >500 mg per deciliter or >400 mg per deciliter after portacaval shunt, premature atherosclerosis (8 of 9 with prior history of cardiovascular events) and severe xanthomatosis, and were homozygotes or compound heterozygotes for known FH-causing LDLR mutations (Hobbs, et al. 1992 Hum Mutat 1:445-66). Three patients were null homozygotes. All patients were on maximally tolerated lipid-lowering therapy.
Study Treatment: The patients were required to maintain their usual background lipid-lowering therapy and diet and exercise regimens throughout the study. All patients received a single open-label dose of evinacumab 250 mg subcutaneously in the abdominal area during the baseline visit and a single 15 mg per kilogram intravenous dose of evinacumab 2 weeks later. The sterile, lyophilized evinacumab drug product was supplied in a 5-ml single-use glass vial for reconstitution to a concentration of 100 mg per milliliter for subcutaneous doses and 50 mg per milliliter for intravenous doses. Patients were followed for a period of up to 24 weeks after the intravenous dose to allow for washout of evinacumab, and were offered enrollment in an extension study.
Pharmacodynamic Assessment: Fasting blood samples were collected before administration of study drug, at baseline and at regular intervals during the open-label treatment period and safety follow-up period, for measurement of LDL-C, non-HDL-C, total cholesterol, HDL-C, apolipoprotein B, lipoprotein (a), triglycerides, apolipoprotein A-1, and other parameters. The primary endpoint was the mean ±standard deviation (SD) percent change in LDL-C from baseline to week 4.

ANGPTL3 [2] = target: T1, ANGPTL3; assay: Phase 1 first-in-human ascending single-dose placebo-controlled study of evinacumab SC or IV in subjects with elevated TGs and/or LDL-C; format: in vivo
Procedure: Methods: The instant study constituted a phase 1, first-in-human, ascending single-dose, placebo (PBO)-controlled, double-blind study of evinacumab administered subcutaneously (SC) or intravenously (IV) in subjects with elevations of TGs (150≤TG≤450 mg/dL) and/or LDL C (≥100 mg/dL). Eighty-three subjects were randomized into the study (9 in PBO SC; 12 in PBO IV; 11 in 75 mg SC: 12 in 150 mg SC, 9 in 250 mg SC, 10 in 5 mg/kg IV, 9 in 10 mg/kg IV, and 11 in 20 mg/kg IV).

ANGPTL3 [3] = target: T1, ANGPTL3; details: Dewey, et al. 2017; cited from earlier work
ANGPTL3 [4] = target: T2, ANGPTL3 (Mus musculus, UniProt Q9R182); details: mouse model; Wang, et al. 2015; cited from earlier work
T2 construct: host or cells: mouse, in vivo
T2 sequence (Q9R182 17-455): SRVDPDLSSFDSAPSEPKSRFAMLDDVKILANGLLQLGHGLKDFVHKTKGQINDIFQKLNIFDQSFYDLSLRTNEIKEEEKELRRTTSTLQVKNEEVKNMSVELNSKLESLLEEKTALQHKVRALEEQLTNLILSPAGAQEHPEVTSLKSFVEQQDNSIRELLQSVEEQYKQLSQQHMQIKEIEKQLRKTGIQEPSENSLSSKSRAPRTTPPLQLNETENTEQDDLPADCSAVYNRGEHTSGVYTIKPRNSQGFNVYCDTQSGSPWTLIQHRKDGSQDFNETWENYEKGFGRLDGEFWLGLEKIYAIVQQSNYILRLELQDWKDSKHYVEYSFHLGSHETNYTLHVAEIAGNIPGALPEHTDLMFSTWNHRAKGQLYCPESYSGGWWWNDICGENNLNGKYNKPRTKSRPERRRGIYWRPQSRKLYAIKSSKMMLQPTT

[5] = 3 homozygous null patients, through week 12
[6] = nine HoFH patients, baseline to week 4, given as a decrease
[7] = nine HoFH patients, between weeks 4 and 12

## evinacumab: human anti-ANGPTL3 monoclonal antibody; HCVR SEQ ID NO:1, LCVR SEQ ID NO:5
ANGPTL3 [1]; [5]
  mean±SD peak reduction in LDL-C: −48±13%
  range of peak reduction in LDL-C: −60% to −33%
ANGPTL3 [1]; 250-mg subcutaneous injection at baseline and 15 mg per kilogram intravenous infusion at week 2
  tolerability: well tolerated
ANGPTL3 [1]; HoFH patients
  absolute reductions in LDL-C achieved: 150 to 200 mg/dL
ANGPTL3 [1]; HoFH patients, Day 4
  LDL-C, Mean of Percent Change from Baseline ± SE (%): −12.8 ± 3.7%
  Non-HDL-C, Mean of Percent Change from Baseline ± SE (%): −13.6 ± 3.6%
ANGPTL3 [1]; HoFH patients, Week 1
  LDL-C, Mean of Percent Change from Baseline ± SE (%): −24 ± 7.0%
  Non-HDL-C, Mean of Percent Change from Baseline ± SE (%): −24.1 ± 6.7%
ANGPTL3 [1]; HoFH patients, Week 2
  Apolipoprotein B, Mean of Percent Change from Baseline ± SE (%): −24.2 ± 7%
  LDL-C, Mean of Percent Change from Baseline ± SE (%): −30.2 ± 8.1%
  Non-HDL-C, Mean of Percent Change from Baseline ± SE (%): −29.6 ± 7.8%
ANGPTL3 [1]; HoFH patients, Week 3
  Apolipoprotein B, Mean of Percent Change from Baseline ± SE (%): −38.6 ± 7.3%
  LDL-C, Mean of Percent Change from Baseline ± SE (%): −41.4 ± 8.3%
  Non-HDL-C, Mean of Percent Change from Baseline ± SE (%): −41.6 ± 8%
ANGPTL3 [1]; HoFH patients, Week 4
  Apolipoprotein B, Mean of Percent Change from Baseline ± SE (%): −45.9 ± 6.1%
  LDL-C, Mean of Percent Change from Baseline ± SE (%): −49.2 ± 7.7%
  Non-HDL-C, Mean of Percent Change from Baseline ± SE (%): −48.9 ± 7.4%
ANGPTL3 [1]; HoFH patients, Week 5
  Apolipoprotein B, Mean of Percent Change from Baseline ± SE (%): −42.3 ± 4.7%
  LDL-C, Mean of Percent Change from Baseline ± SE (%): −46.8 ± 5.1%
  Non-HDL-C, Mean of Percent Change from Baseline ± SE (%): −46.6 ± 5.0%
ANGPTL3 [1]; HoFH patients, Week 6
  Apolipoprotein B, Mean of Percent Change from Baseline ± SE (%): −43.1 ± 4.9%
  LDL-C, Mean of Percent Change from Baseline ± SE (%): −52.1 ± 4.9%
  Non-HDL-C, Mean of Percent Change from Baseline ± SE (%): −51.5 ± 4.8%
ANGPTL3 [1]; HoFH patients, Week 8
  Apolipoprotein B, Mean of Percent Change from Baseline ± SE (%): −42.7 ± 4.8%
  LDL-C, Mean of Percent Change from Baseline ± SE (%): −51.6 ± 6.0%
  Non-HDL-C, Mean of Percent Change from Baseline ± SE (%): −50.6 ± 5.7%
ANGPTL3 [1]; HoFH patients, Week 10
  LDL-C, Mean of Percent Change from Baseline ± SE (%): −45.6 ± 4.6%
  Non-HDL-C, Mean of Percent Change from Baseline ± SE (%): −44.8 ± 4.4%
ANGPTL3 [1]; HoFH patients, Week 12
  Apolipoprotein B, Mean of Percent Change from Baseline ± SE (%): −29.5 ± 7.2%
  LDL-C, Mean of Percent Change from Baseline ± SE (%): −36.6 ± 6.4%
  Non-HDL-C, Mean of Percent Change from Baseline ± SE (%): −36.4 ± 6.2%
ANGPTL3 [1]; Patient C on high-dose statins, ezetimibe and lomitapide, week 4, 2 weeks after evinacumab intravenous administration
  LDL-C reached, Patient C: 15 mg per deciliter
ANGPTL3 [1]; Patient C, concomitant lomitapide, 2 weeks after evinacumab intravenous administration
  reduction in LDL-C, Patient C: 90%
ANGPTL3 [1]; Patient G, concomitant lomitapide, 2 weeks after evinacumab intravenous administration
  reduction in LDL-C, Patient G: 44%
ANGPTL3 [1]; all nine patients, including the three homozygous null patients lacking LDLR activity
  reductions in LDL-C from baseline in all patients: clinically meaningful reductions in LDL-C from baseline
ANGPTL3 [1]; evinacumab add-on therapy in HoFH participants
  normalization of LDL-C concentrations: normalization of LDL-C concentrations in four HoFH participants
ANGPTL3 [1]; nine HoFH adults on maximally-tolerated conventional therapies, week 4, given as a decrease
  LDL-C decreased (primary endpoint): 49%
ANGPTL3 [1]; nine HoFH patients
  adverse events considered as related to the study medication: Six events were considered as related to the study medication
  adverse events leading to treatment discontinuation: none led to treatment discontinuation
  occurrence of at least one adverse event: All nine patients reported the occurrence of at least one adverse event
  serious adverse events: One event (coronary artery disease due to underlying disease) was serious but was not considered as related to the study medication
ANGPTL3 [1]; nine HoFH patients, baseline to week 4
  triglycerides percent change, interquartile range: −57% to −38%
ANGPTL3 [1]; [6]
  HDL-C decreased by (percent change, mean±SD): 36±16%
  apolipoprotein B decreased by (percent change, mean±SD): 46±18%
  non-HDL-C decreased by (percent change, mean±SD): 49±22%
  triglycerides decreased by (percent change, median): 47%
ANGPTL3 [1]; [7]
  Overall mean±SD peak reduction in LDL-C: -58+18% and −58±18%
  absolute peak reduction in LDL-C: 202 mg/dL
ANGPTL3 [1]; nine HoFH patients, between weeks 4 and 12, range across patients
  range of peak reduction in LDL-C: -90% to-33%
ANGPTL3 [1]; nine HoFH patients, week 4
  absolute change from baseline in LDL-C (mean±SD): −157±90 mg per deciliter
  mean±SD achieved LDL-C value: 219±191 mg per deciliter
  mean±SD percent change in LDL-C from baseline to week 4 (pre-specified primary endpoint): −49±23%
ANGPTL3 [1]; nine HoFH patients, week 4, range across patients
  range of absolute change from baseline in LDL-C: −323 to −71 mg per deciliter
ANGPTL3 [1]; one patient, week 4 (2 weeks after the intravenous dose)
  reduction in LDL-C achieved by one patient: greater than 80%
ANGPTL3 [1]; patient D, no lomitapide, week 4
  reduction in LDL-C, patient D: −77%
ANGPTL3 [2]; Day 4, across the evinacumab doses (75-250 mg SC, 5-20 mg/kg IV)
  TG, median % change from baseline (maximum TG reductions): −1.0% to −75.0%
ANGPTL3 [2]; Day 11, across the evinacumab doses (75-250 mg SC, 5-20 mg/kg IV)
  LDL-C, mean % changes from baseline: −3.4% to −25.5%
ANGPTL3 [2]; after 20 mg/kg IV
  duration of LDL reduction: 43 days
  duration of TG reduction: 64 days
ANGPTL3 [2]; evinacumab group
  headache (TEAE), number of subjects: 7
  headache (TEAE), percent of subjects: 11.3%
  subjects reporting at least one treatment emergent adverse event (TEAE), number: 32 subjects
  subjects reporting at least one treatment emergent adverse event (TEAE), percent: 51.6%
ANGPTL3 [2]; evinacumab-treated
  increases in ALT/AST [>2X ULN], number of subjects: 5 treated subjects
ANGPTL3 [2]; healthy subjects with moderately elevated TGs and/or LDL-C
  effect on TGs, LDL-C and HDL-C: rapid and substantial reductions in TGs, as well as reductions in LDL-C and HDL-C
ANGPTL3 [2]; human, in vivo
  discontinuation due to a TEAE: no subject discontinued due to a TEAE
  dose-related safety trend: no dose-related safety trend
  effect on HDL-C, VLDL-C, total cholesterol, non-HDL-C, ApoA1, and ApoB: Dose-dependent reductions
  effect on Lp(a): no apparent effects
  serious TEAEs: None were serious
ANGPTL3 [2]; normal healthy volunteers
  effect on major lipid fractions: reduced the three major lipid fractions
ANGPTL3 [2]; single SC or IV dose, subjects with moderately elevated TGs and/or LDL-C
  tolerability: generally well-tolerated
ANGPTL3 [3]
  tolerability and LDL-C effect in first-in-human study of healthy human volunteers: shown to reduce LDL-C and was also well tolerated
ANGPTL3 [4]
  number of VLDLs secreted by the liver and character of VLDL particles: did not affect the number of VLDLs secreted by the liver, but qualitatively altered the VLDL particles that were made

— patent publication US20250332254A1, “METHODS FOR TREATING PATIENTS WITH FAMILIAL HYPERCHOLESTEROLEMIA” (REGENERON PHARMACEUTICALS, INC., priority 2016, published 2025)
